Measured values taken from patent US20240279310A1 (ALPINE IMMUNE SCIENCES, published 2024).

How the values were obtained:
[1] = target: BAFF 60-mer (an oligomer of twenty BAFF 3-mers); assay: cell-based or functional assay
[2] = target: recombinant human BAFF (BioLegend) (human, UniProt Q9Y275 134-285); assay: cell-based or functional assay

Binder | BAFF 60-mer IC50 (pM) [1] [pM] | BAFF IC50 (pM) [2] [pM]
TACI WT 1 GS(G4S)2 (194) scFc_218 (SEQ ID NO: 203) (Fc fusion) VAMRSCPEEQYWDPLLGTCMSCKTICNHQSQRTCAAFCRSLSCRKEQGKFYDHLLRDCISCASICGQHPKQCAYFCENKLRSGSGGGGSGGGGSEPKSSDKTHTCPPCPAPEAEGAPSVFLFPPKPKDTLMISRTPEVTCVVVDVSHEDPEVKFNWYVDGVEVHNAKTKPREEQYNSTYRVVSVLTVLHQDWLNGKEYKCKVSNKALPAPIEKTISKAKGQPREPQVYTLPPSRDELTKNQVSLTCLVKGFYPSDIAVEWESNGQPENNYKTTPPVLDSDGSFFLYSKLTVDKSRWQQGNVFSCSVMHEALHNHYTQKSLSLSPGGGGGSGGGGSGGGGSGGGGSGGGGSGGGGSGGGGSGGGGSGGGGSGGGGSGGGGSGGGGSEPKSSDKTHTCPPCPAPEAEGAPSVFLFPPKPKDTLMISRTPEVTCVVVDVSHEDPEVKFNWYVDGVEVHNAKTKPREEQYNSTYRVVSVLTVLHQDWLNGKEYKCKVSNKALPAPIEKTISKAKGQPREPQVYTLPPSRDELTKNQVSLTCLVKGFYPSDIAVEWESNGQPENNYKTTPPVLDSDGSFFLYSKLTVDKSRWQQGNVFSCSVMHEALHNHYTQKSLSLSPG | 15800 | 4420
TACI WT 13 GS(G4S)2 (194) sc_Fc 218 (SEQ ID NO: 196) (Fc fusion) SLSCRKEQGKFYDHLLRDCISCASICGQHPKQCAYFCENKLRSGSGGGGSGGGGSEPKSSDKTHTCPPCPAPEAEGAPSVFLFPPKPKDTLMISRTPEVTCVVVDVSHEDPEVKFNWYVDGVEVHNAKTKPREEQYNSTYRVVSVLTVLHQDWLNGKEYKCKVSNKALPAPIEKTISKAKGQPREPQVYTLPPSRDELTKNQVSLTCLVKGFYPSDIAVEWESNGQPENNYKTTPPVLDSDGSFFLYSKLTVDKSRWQQGNVFSCSVMHEALHNHYTQKSLSLSPGGGGGSGGGGSGGGGSGGGGSGGGGSGGGGSGGGGSGGGGSGGGGSGGGGSGGGGSGGGGSEPKSSDKTHTCPPCPAPEAEGAPSVFLFPPKPKDTLMISRTPEVTCVVVDVSHEDPEVKFNWYVDGVEVHNAKTKPREEQYNSTYRVVSVLTVLHQDWLNGKEYKCKVSNKALPAPIEKTISKAKGQPREPQVYTLPPSRDELTKNQVSLTCLVKGFYPSDIAVEWESNGQPENNYKTTPPVLDSDGSFFLYSKLTVDKSRWQQGNVFSCSVMHEALHNHYTQKSLSLSPG | 24100 | 5700
TACI 26 GS(G4S)2 (194) scFc_218 (SEQ ID NO: 199) (Fc fusion) SLSCRKEQGEYYDHLLRDCISCASICGQHPKQCADFCENKLRSGSGGGGSGGGGSEPKSSDKTHTCPPCPAPEAEGAPSVFLFPPKPKDTLMISRTPEVTCVVVDVSHEDPEVKFNWYVDGVEVHNAKTKPREEQYNSTYRVVSVLTVLHQDWLNGKEYKCKVSNKALPAPIEKTISKAKGQPREPQVYTLPPSRDELTKNQVSLTCLVKGFYPSDIAVEWESNGQPENNYKTTPPVLDSDGSFFLYSKLTVDKSRWQQGNVFSCSVMHEALHNHYTQKSLSLSPGGGGGSGGGGSGGGGSGGGGSGGGGSGGGGSGGGGSGGGGSGGGGSGGGGSGGGGSGGGGSEPKSSDKTHTCPPCPAPEAEGAPSVFLFPPKPKDTLMISRTPEVTCVVVDVSHEDPEVKFNWYVDGVEVHNAKTKPREEQYNSTYRVVSVLTVLHQDWLNGKEYKCKVSNKALPAPIEKTISKAKGQPREPQVYTLPPSRDELTKNQVSLTCLVKGFYPSDIAVEWESNGQPENNYKTTPPVLDSDGSFFLYSKLTVDKSRWQQGNVFSCSVMHEALHNHYTQKSLSLSPG | 106000 | 8240
